Measurements: article PMC5704011, “Discovery of High-Affinity PDGF-VEGFR Interactions: Redefining RTK Dynamics” (Scientific Reports, 2017)

Tests used:
Details in all cases: both partners purified
human recombinant PDGFRα [1] = biological target: T1, human recombinant PDGFRα (human, UniProt P16234 24-528); assay: SPR; BIAcore 3000, 25 °C, CM5 chip; receptor immobilised by amine coupling (~200-500 R.U.); ligand injected at 40, 20 and 10 nM in HBS-EP pH 7.4 (10 mM HEPES, 3 mM EDTA, 150 mM NaCl, 0.005% TWEEN-20); angiopoietin-4 reference cell subtracted; global 1:1 Langmuir fit; χ^2-to-Rmax < 1.0 taken as a true interaction
T1 construct: Platelet-derived growth factor receptor alpha, human; also called PDGFRa; source: bought: R&D Systems (Cat #322-PR-050/CF), human recombinant
T1 sequence (P16234 24-528): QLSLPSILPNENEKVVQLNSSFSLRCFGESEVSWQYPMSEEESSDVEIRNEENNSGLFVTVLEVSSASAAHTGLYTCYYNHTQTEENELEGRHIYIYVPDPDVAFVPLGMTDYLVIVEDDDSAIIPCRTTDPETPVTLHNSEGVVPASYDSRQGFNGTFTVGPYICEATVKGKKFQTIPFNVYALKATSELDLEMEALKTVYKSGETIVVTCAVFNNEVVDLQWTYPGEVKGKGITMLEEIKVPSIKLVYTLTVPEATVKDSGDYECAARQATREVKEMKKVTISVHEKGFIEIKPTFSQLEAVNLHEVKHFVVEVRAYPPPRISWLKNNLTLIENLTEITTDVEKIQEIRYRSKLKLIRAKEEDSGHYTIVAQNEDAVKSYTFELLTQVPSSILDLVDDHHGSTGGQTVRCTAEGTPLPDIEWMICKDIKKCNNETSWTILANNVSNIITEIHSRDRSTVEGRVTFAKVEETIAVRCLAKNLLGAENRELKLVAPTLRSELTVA

human recombinant VEGFR2 = biological target: T2, human recombinant VEGFR2 (human, UniProt P35968 20-764); assay: as above
T2 construct: Vascular endothelial growth factor receptor 2 (KDR), human; source: bought: R&D Systems (Cat. #357-KD-050/CF), human recombinant
T2 sequence (P35968 20-764): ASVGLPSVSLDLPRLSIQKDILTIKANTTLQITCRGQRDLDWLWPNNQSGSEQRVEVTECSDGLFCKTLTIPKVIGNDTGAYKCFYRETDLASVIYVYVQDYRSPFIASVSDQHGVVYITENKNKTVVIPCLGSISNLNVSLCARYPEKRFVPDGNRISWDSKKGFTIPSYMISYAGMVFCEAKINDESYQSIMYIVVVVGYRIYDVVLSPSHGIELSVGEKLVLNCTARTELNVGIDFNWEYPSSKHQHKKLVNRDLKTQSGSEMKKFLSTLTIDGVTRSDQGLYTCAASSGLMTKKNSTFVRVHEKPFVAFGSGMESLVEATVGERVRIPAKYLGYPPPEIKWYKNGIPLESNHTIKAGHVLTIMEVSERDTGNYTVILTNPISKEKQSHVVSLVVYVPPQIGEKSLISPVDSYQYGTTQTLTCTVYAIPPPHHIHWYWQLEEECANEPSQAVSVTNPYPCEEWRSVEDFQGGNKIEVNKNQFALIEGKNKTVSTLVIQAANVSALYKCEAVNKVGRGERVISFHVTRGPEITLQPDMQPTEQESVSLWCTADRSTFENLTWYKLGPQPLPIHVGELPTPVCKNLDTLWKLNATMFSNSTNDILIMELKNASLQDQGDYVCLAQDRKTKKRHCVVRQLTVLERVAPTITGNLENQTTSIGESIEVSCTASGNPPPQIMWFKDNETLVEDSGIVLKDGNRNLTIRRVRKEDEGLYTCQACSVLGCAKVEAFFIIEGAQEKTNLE

human recombinant PDGFRα [2] = biological target: T3, human recombinant PDGFRα (human, UniProt P16234 24-1089); assay: SPR; BIAcore 3000, 25 °C, CM5 chip; receptor immobilised by amine coupling (~200-500 R.U.); ligand injected at 10, 20 and 40 nM, 30 uL/min, 10 min dissociation; HBS-EP pH 7.4 (10 mM HEPES, 3 mM EDTA, 150 mM NaCl, 0.005% TWEEN-20); angiopoietin-4 reference cell subtracted; global 1:1 Langmuir fit; χ2-to-Rmax > 1.0 or negative association curves taken as no true interaction
T3 construct: platelet-derived growth factor receptor alpha, human, recombinant; also called PDGFRa; source: bought: R&D Systems
T3 sequence (P16234 24-1089): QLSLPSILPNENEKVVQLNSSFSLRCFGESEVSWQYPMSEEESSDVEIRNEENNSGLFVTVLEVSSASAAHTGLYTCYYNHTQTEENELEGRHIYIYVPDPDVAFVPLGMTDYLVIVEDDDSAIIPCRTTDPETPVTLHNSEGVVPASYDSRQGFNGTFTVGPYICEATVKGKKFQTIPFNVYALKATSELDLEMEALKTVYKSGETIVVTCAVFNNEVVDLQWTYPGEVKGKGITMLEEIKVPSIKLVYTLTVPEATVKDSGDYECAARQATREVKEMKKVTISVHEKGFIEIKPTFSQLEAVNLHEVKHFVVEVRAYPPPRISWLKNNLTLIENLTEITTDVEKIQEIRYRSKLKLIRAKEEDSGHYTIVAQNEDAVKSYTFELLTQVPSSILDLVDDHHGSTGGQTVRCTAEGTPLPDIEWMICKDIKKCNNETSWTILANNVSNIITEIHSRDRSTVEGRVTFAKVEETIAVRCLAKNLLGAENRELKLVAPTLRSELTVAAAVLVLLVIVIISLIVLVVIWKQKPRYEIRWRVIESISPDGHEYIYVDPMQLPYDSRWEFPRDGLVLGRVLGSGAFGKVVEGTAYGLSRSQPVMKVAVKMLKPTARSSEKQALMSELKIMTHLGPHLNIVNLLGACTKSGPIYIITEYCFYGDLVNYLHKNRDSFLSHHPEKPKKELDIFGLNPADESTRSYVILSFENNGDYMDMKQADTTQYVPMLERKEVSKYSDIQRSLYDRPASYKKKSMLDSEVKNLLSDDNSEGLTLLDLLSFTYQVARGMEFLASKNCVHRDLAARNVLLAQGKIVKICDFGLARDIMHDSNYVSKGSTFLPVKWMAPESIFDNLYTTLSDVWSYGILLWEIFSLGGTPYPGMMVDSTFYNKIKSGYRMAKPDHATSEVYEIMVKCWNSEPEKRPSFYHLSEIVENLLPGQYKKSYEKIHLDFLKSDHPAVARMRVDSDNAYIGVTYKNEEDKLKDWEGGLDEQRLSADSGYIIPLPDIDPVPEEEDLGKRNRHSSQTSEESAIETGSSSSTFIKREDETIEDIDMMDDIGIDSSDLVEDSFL

human recombinant PDGFRβ = biological target: T4, human recombinant PDGFRβ (human, UniProt P09619 33-1106); assay: as above
T4 construct: platelet-derived growth factor receptor beta, human, recombinant; source: bought: R&D Systems
T4 sequence (P09619 33-1106): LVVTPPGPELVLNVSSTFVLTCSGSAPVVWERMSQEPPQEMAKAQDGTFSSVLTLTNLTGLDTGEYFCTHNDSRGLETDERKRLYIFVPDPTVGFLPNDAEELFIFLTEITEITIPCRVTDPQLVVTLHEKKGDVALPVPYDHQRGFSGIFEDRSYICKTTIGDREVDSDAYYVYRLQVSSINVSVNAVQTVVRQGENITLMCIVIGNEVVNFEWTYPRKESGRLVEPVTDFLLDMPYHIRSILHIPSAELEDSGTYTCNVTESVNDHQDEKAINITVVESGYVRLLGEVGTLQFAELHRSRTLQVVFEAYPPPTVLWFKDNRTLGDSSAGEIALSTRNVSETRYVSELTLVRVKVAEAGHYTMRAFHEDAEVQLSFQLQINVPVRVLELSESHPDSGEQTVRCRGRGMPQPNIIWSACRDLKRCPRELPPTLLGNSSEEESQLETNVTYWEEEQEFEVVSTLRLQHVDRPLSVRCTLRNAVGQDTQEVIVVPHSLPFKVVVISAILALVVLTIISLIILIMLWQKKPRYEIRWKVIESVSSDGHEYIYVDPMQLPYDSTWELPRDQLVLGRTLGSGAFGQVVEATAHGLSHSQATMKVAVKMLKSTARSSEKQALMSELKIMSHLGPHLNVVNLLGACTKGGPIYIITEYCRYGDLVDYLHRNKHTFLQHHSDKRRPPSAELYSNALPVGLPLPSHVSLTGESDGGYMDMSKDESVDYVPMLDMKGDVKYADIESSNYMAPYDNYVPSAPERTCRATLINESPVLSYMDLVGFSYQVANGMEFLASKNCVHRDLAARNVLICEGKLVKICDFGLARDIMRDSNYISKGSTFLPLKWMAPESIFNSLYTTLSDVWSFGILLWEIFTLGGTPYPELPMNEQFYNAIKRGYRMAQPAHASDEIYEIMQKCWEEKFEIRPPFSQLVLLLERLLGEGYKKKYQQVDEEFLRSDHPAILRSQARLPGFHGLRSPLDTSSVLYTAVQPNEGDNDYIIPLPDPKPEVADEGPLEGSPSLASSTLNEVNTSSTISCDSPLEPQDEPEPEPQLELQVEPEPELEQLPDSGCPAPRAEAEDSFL

Row | Binder | Kd (human recombinant PDGFRα [1]) [nM] | Kd (human recombinant VEGFR2) [nM] | koff (human recombinant PDGFRα [2]) [s⁻¹] | kon (human recombinant PDGFRα [2]) [M⁻¹ s⁻¹] | koff (human recombinant PDGFRβ) [s⁻¹] | kon (human recombinant PDGFRβ) [M⁻¹ s⁻¹]
1 | human recombinant PDGF-BB (ligand, UniProt P01127 82-190, looked up, Platelet-derived growth factor subunit B, human; Homodimer of B chains by its name; source: bought: R&D Systems (Cat. #220-BB-050), human recombinant) SLGSLTIAEPAMIAECKTRTEVFEISRRLIDRTNANFLVWPPCVEVQRCSGCCNNRNVQCRPTQVQLRPVQVRKIEIVRKKPIFKKATVTLEDHLACKCETVAAARPVT | 420 | 37 | – | – | – | –
2 | human recombinant PDGF-CC (ligand, disulfide-linked homodimer; limits not given, active growth factor domain after cleavage at Arg234 taken by convention) VVDLNLLTEEVRLYSCTPRNFSVSIREELKRTDTIFWPGCLLVKRCGGNCACCLHNCNECQCVPSKVTKKYHEVLQLRPKTGVRGLHKSLTDVALEHHEECDCVCRGSTGG | – | – | 0.0002 | 5000 | 0.0014 | 740000
3 | human recombinant PDGF-CC (ligand, UniProt Q9NRA1 235-345, looked up, Platelet-derived growth factor C, human; Homodimer by its name; source: bought: R&D Systems (Cat. #1687-CC-025), human recombinant) VVDLNLLTEEVRLYSCTPRNFSVSIREELKRTDTIFWPGCLLVKRCGGNCACCLHNCNECQCVPSKVTKKYHEVLQLRPKTGVRGLHKSLTDVALEHHEECDCVCRGSTGG | 3.4 | – | – | – | – | –
